Measured values published in paper PMC4072508, “Genome-Wide Prediction and Validation of Peptides That Bind Human Prosurvival Bcl-2 Proteins” (PLoS Computational Biology, 2014).

T1: Mcl-1, Q07820
T1 chain: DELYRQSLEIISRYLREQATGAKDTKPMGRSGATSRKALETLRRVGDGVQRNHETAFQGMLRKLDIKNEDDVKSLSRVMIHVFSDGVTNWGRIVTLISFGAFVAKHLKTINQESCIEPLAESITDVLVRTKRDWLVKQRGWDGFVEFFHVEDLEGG

T2: Bfl-1, Q16548
T2 chain: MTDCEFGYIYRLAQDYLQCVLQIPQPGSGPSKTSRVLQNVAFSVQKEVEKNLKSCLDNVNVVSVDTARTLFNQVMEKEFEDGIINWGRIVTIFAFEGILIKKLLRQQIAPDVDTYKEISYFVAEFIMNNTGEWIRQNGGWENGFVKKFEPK


Biological target: Bcl-xL, Q07817
Sequence (Q07817 1-209): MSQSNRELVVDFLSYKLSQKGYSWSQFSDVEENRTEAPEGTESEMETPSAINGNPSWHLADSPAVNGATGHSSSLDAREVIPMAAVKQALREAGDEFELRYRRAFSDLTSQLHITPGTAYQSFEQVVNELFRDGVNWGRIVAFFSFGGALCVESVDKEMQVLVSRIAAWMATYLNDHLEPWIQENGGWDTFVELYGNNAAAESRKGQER
Test: peptide SPOT array, c-Myc-tagged receptor at 1 uM or 100 nM, anti-c-Myc-Cy3

| SPOT signal as a fraction of Bim BH3's signal on the same receptor and array | Binder |
| --- | --- |
| 0.02 | VILADPDGHEICFVGDEAFRELSKMD [GLOD4] |
| 0.02 | VFDDLRGSVSDSWVGDSTGVILVLTT |
| 0.02 | LRVSTKIGSCDKSVGEVMGIGRSFEE |
| 0.06 | RAKASSLSEEDKHFADGLETDGTLQK [DSN1] |
| 0.02 | VFDDLRGSVSLSWVGDSTGVILVLTT |
| 1 | SRQPRDFGDSLARGGKGFLRGVVGGV [VPS13C] |
| 0.4 | NKSLTTLGLVISSLADQAAGKGKSKF [KIF13A] |
| 0.01 | RCELQICGLADADAGEYLCVCGQERT [OBSCN] |
| 0.19 | NKTMTQLSSTLARCLKDILGFAVMFF [PKD2L1] |
| 0.02 | HPRKESQVRQLAWVGDGVWVSIRLDS [SPAG9] |
| 0.06 | ADVHGIWSRLFCDFLDEFEVLDTTGE [UBA6] |
| 0.08 | IQENVDISTVYQIFLDEVLGSGQFGI [PRKD3] |
| 0.01 | ERAISCMGQIICNLGDNLGSDLPNTL |
| 0.07 | GYPFNDVCQWFIDRADLIFVVFDPTK [SRL] |
| 0.07 | RVSWNITGTVDASSGDDGCVRLWKAN [SEH1L] |
| 0.05 | NDDTPWIARTLDNLLDELTAILSAPA [GBP6] |
| 0.02 | KKCQDMIMTEDTNAGDDVVVFYNDKA [ITPR3] |

| SPOT signal as a fraction of Bim BH3's signal on the same receptor and array | Binder |
| --- | --- |
| 0.02 | AVLCVECGYKYRFFLEDAEIAARELN [MSH3] |
| 0.06 | RGAMLSLATGDAHSGSDLSLLVPEIE |
| 0.64 | ISSLDLLPYGDRYIAKVLKNSIHEKF [IQGAP2] |
| 0.08 | VLSRIEAGRSLKSVLDEFGISKSTFY [TIGD7] |
| 0.04 | EKVLIFGGDILKFALDALLALWRVER [ADCY10] |
| 0.02 | HGTSSRIGSSMKSVGEVMAIGRTFEE [CPS1] |
| 0.01 | SKFVILSAHKDVFIGDTLSRQAKAAD [BCAR1] |
| 0.06 | RGAMLSLATGLAHSLSDLSLLVPEIE |
| 0.02 | TLHFNQRGTWDASGSDDLKVVVWDWV [DCAF8] |
| 0.02 | GLFSATSGVDLKYVADTFGQEVRPVS [DDX7] |
| 0.27 | SWFIQSLCAMLKQYLDKLEFMHILTR [CASP3] |
| 0.36 | YIVLGLRKTTLQKVGKEVAELVGRVG [NLRX1] |
| 0.04 | LRVSTKIGSCMKSVLEVMGIGRSFEE |
| 0.58 | PAKKMTLSEIDRWICDNFPYYKNAGI [FOXJ2] |
| 0.07 | CHGLRELALNYHLLSDELLLALSSEK [FBXL3] |
| 0.01 | ERAISCMGQIDCNLGDNLGSDLPNTL |
| 0.07 | AIKWDPTGNLLASCLDDMTLKIWSMK [TBL1XR1] |

Biological target: T1, Mcl-1, Q07820
Test: as above

| SPOT signal as a fraction of Bim BH3's signal on the same receptor and array | Binder |
| --- | --- |
| 0.01 | VILADPDGHEICFVGDEAFRELSKMD [GLOD4] |
| 0.02 | VFDDLRGSVSDSWVGDSTGVILVLTT |
| 0.02 | LRVSTKIGSCDKSVGEVMGIGRSFEE |
| 0.04 | RAKASSLSEEDKHFADGLETDGTLQK [DSN1] |
| 0.01 | VFDDLRGSVSLSWVGDSTGVILVLTT |
| 0.53 | SRQPRDFGDSLARGGKGFLRGVVGGV [VPS13C] |
| 0.18 | NKSLTTLGLVISSLADQAAGKGKSKF [KIF13A] |
| 0.01 | RCELQICGLADADAGEYLCVCGQERT [OBSCN] |
| 0.12 | NKTMTQLSSTLARCLKDILGFAVMFF [PKD2L1] |
| 0.02 | HPRKESQVRQLAWVGDGVWVSIRLDS [SPAG9] |
| 0.05 | ADVHGIWSRLFCDFLDEFEVLDTTGE [UBA6] |
| 0.05 | IQENVDISTVYQIFLDEVLGSGQFGI [PRKD3] |
| 0.01 | ERAISCMGQIICNLGDNLGSDLPNTL |
| 0.06 | GYPFNDVCQWFIDRADLIFVVFDPTK [SRL] |
| 0.03 | RVSWNITGTVDASSGDDGCVRLWKAN [SEH1L] |
| 0.04 | NDDTPWIARTLDNLLDELTAILSAPA [GBP6] |
| 0.01 | KKCQDMIMTEDTNAGDDVVVFYNDKA [ITPR3] |

| SPOT signal as a fraction of Bim BH3's signal on the same receptor and array | Binder |
| --- | --- |
| 0.02 | AVLCVECGYKYRFFLEDAEIAARELN [MSH3] |
| 0.04 | RGAMLSLATGDAHSGSDLSLLVPEIE |
| 0.34 | ISSLDLLPYGDRYIAKVLKNSIHEKF [IQGAP2] |
| 0.085 | VLSRIEAGRSLKSVLDEFGISKSTFY [TIGD7] |
| 0.03 | EKVLIFGGDILKFALDALLALWRVER [ADCY10] |
| 0.02 | HGTSSRIGSSMKSVGEVMAIGRTFEE [CPS1] |
| 0.02 | SKFVILSAHKDVFIGDTLSRQAKAAD [BCAR1] |
| 0.05 | RGAMLSLATGLAHSLSDLSLLVPEIE |
| 0.02 | TLHFNQRGTWDASGSDDLKVVVWDWV [DCAF8] |
| 0.02 | GLFSATSGVDLKYVADTFGQEVRPVS [DDX7] |
| 0.33 | YIVLGLRKTTLQKVGKEVAELVGRVG [NLRX1] |
| 0.04 | LRVSTKIGSCMKSVLEVMGIGRSFEE |
| 0.29 | PAKKMTLSEIDRWICDNFPYYKNAGI [FOXJ2] |
| 0.06 | CHGLRELALNYHLLSDELLLALSSEK [FBXL3] |
| 0.01 | ERAISCMGQIDCNLGDNLGSDLPNTL |
| 0.05 | AIKWDPTGNLLASCLDDMTLKIWSMK [TBL1XR1] |

Biological target: T2, Bfl-1, Q16548
Test: as above

| SPOT signal as a fraction of Bim BH3's signal on the same receptor and array | Binder |
| --- | --- |
| 0.0533 | KQMKEDGACLDRAVADQVYGDQDMHE |
| 0.03 | RAKASSLSEEDKHFADGLETDGTLQK [DSN1] |
| 0.04 | ADVHGIWSRLFCDFLDEFEVLDTTGE [UBA6] |
| 0.05 | IQENVDISTVYQIFLDEVLGSGQFGI [PRKD3] |
| 0.0567 | KQMKEDGACLFRAVLDQVYGDQDMHE |
| 0.05 | GYPFNDVCQWFIDRADLIFVVFDPTK [SRL] |
| 0.04 | NDDTPWIARTLDNLLDELTAILSAPA [GBP6] |
| 0.0533 | KQMKEDGACLFRAVADQVYGDQDMHE |
| 0.51 | ISSLDLLPYGDRYIAKVLKNSIHEKF [IQGAP2] |
| 0.04 | THFLDEEVKLIKKMGDHLTNLHRLGG [FTL] |
| 0.21 | SWFIQSLCAMLKQYLDKLEFMHILTR [CASP3] |
| 0.26 | YIVLGLRKTTLQKVGKEVAELVGRVG [NLRX1] |
| 0.26 | PAKKMTLSEIDRWICDNFPYYKNAGI [FOXJ2] |
| 0.04 | CHGLRELALNYHLLSDELLLALSSEK [FBXL3] |
| 0.03 | MEMYQPSAVVLQCGADSLSGDRLGCF [HDAC2] |
